T1: EsCas13d, nuclease-dead (Eubacterium siraeum, UniProt B0MS50, R295A;H300A;R849A;H854A)
T1 sequence: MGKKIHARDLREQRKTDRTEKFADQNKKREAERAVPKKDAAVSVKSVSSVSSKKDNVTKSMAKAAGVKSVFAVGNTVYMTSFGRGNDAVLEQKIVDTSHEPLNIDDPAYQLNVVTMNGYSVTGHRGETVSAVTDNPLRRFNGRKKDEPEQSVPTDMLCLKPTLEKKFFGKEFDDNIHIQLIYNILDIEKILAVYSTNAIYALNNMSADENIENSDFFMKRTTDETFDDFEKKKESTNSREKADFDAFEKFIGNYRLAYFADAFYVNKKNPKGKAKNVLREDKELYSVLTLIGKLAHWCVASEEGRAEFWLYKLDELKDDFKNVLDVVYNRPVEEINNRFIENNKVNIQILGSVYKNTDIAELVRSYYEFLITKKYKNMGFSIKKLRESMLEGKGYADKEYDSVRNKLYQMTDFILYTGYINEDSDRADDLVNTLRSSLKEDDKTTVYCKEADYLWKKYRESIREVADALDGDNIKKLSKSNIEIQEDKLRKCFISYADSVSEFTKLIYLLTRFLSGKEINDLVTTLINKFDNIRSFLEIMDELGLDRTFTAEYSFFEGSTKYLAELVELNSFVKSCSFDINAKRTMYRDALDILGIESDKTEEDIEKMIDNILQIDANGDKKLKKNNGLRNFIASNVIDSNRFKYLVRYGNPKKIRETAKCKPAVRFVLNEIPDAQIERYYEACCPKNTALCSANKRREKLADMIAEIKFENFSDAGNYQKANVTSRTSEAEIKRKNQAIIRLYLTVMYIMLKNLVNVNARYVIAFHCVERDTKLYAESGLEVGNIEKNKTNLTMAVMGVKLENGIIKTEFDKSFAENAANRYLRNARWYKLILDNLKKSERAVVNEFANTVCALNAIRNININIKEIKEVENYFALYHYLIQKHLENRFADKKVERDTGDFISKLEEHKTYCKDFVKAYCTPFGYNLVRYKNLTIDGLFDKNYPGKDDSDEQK

B1: target 1 U3A,G12U (mixed)
RNA 1: CACCCGUGCAAAAAUGCAGGGGUCUAAAACUGAGCGGAUAACCUCUCUAUGG
RNA 2: GGGAAUGGAUCCACAUCUACGAAUUCGUACCAUAGAGAGUUUAUCCGCACACCGAGAUCGGAAGAGCACACGU
B2: target 1 insA 3' of 21,insG 3' of 1 (mixed)
RNA 1: B1 RNA 1
RNA 2: GGGAAUGGAUCCACAUCUACGAAUUCGUACCAAUAGAGAGGUUAUCCGCUCAGCCGAGAUCGGAAGAGCACACGU
B3: target 1 insG 3' of 16,insA 3' of 11 (mixed)
RNA 1: B1 RNA 1
RNA 2: GGGAAUGGAUCCACAUCUACGAAUUCGUACCAUAGAGGAGGUAUAUCCGCUCACCGAGAUCGGAAGAGCACACGU
B4: target 1 C6G,A14C (mixed)
RNA 1: B1 RNA 1
RNA 2: B1 RNA 2 with A38C, U40G, C46G, A49U
B5: target 1 insA 3' of 7,insA 3' of 6 (mixed)
RNA 1: B1 RNA 1
RNA 2: B3 RNA 2 with G38A, A39G, G41U, A45C, U46A, C48A
B6: target 1 complement block 2-6 (mixed)
RNA 1: B1 RNA 1
RNA 2: B1 RNA 2 with U40G, C46G, G47C, C48G, C50G
B7: target 1 insG 3' of 7,insU 3' of 6 (mixed)
RNA 1: B1 RNA 1
RNA 2: B3 RNA 2 with G38A, A39G, G41U, A45C, U46G, C48U
B8: target 1 U10A (mixed)
RNA 1: B1 RNA 1
RNA 2: B1 RNA 2 with U40G, U42A, A49U
B9: target 1 insC 3' of 18,insG 3' of 10 (mixed)
RNA 1: B1 RNA 1
RNA 2: B3 RNA 2 with G35C, A36G, G37A, A43U, U44G
B10: target 1 insC 3' of 15,insA 3' of 13 (mixed)
RNA 1: B1 RNA 1
RNA 2: B3 RNA 2 with G38C, G41A, U42G, A43U
B11: target 1 A1U,U10A (mixed)
RNA 1: B1 RNA 1
RNA 2: B1 RNA 2 with U40G, U42A, A49U, A51U
B12: target 1 U10C,U11G (mixed)
RNA 1: B1 RNA 1
RNA 2: B1 RNA 2 with U40G, U41G, U42C, A49U
B13: target 1 complement block 7-11 (mixed)
RNA 1: B1 RNA 1
RNA 2: B1 RNA 2 with U40G, U41A, U42A, A43U, U44A, C45G, A49U
B14: target 1 insG 3' of 16,insG 3' of 8 (mixed)
RNA 1: B1 RNA 1
RNA 2: B3 RNA 2 with A43U, U44A, A45U, U46G
B15: target 1 insA 3' of 13,insG 3' of 10 (mixed)
RNA 1: B1 RNA 1
RNA 2: B3 RNA 2 with G38A, A39G, G40A, A43U, U44G
B16: target 1 G5C,C7G (mixed)
RNA 1: B1 RNA 1
RNA 2: B1 RNA 2 with U40G, C45G, G47C, A49U
B17: target 1 insA 3' of 3 (mixed)
RNA 1: B1 RNA 1
RNA 2: GGGAAUGGAUCCACAUCUACGAAUUCGUACCAUAGAGAGGUUAUCCGCUACACCGAGAUCGGAAGAGCACACGU
B18: target 1 U10A,U19A (mixed)
RNA 1: B1 RNA 1
RNA 2: B1 RNA 2 with U33A, U40G, U42A, A49U
B19: target 1 insU 3' of 17,insA 3' of 11 (mixed)
RNA 1: B1 RNA 1
RNA 2: B3 RNA 2 with A36U, G37A
B20: target 1 A1G,U10A (mixed)
RNA 1: B1 RNA 1
RNA 2: B1 RNA 2 with U40G, U42A, A49U, A51G
B21: target 1 insC 3' of 12,insA 3' of 7 (mixed)
RNA 1: B1 RNA 1
RNA 2: B3 RNA 2 with G38A, A39G, G41C, A43U, U44A, A45U, U46C, C47A
B22: target 1 insA 3' of 17,insC 3' of 5 (mixed)
RNA 1: B1 RNA 1
RNA 2: B3 RNA 2 with G37A, A43U, U44A, A45U, U46C, C48G, G49C
B23: target 1 insC 3' of 5,insC 3' of 3 (mixed)
RNA 1: B1 RNA 1
RNA 2: B3 RNA 2 with G38A, A39G, G41U, A45C, U46C, C47G, G49C, C50U, U51C
B24: target 1 G13A,A16G (mixed)
RNA 1: B1 RNA 1
RNA 2: B1 RNA 2 with A36G, G39A, U40G, A49U
B25: target 1 U8G,A9C (mixed)
RNA 1: B1 RNA 1
RNA 2: B1 RNA 2 with U40G, A43C, U44G, A49U
B26: target 1 insG 3' of 11,insU 3' of 5 (mixed)
RNA 1: B1 RNA 1
RNA 2: GGGAAUGGAUCCACAUCUACGAAUUCGUACCAUAGAGAGGUGUAUCCGUCUCACCGAGAUCGGAAGAGCACACGU
B27: target 1 C7U,G12A (mixed)
RNA 1: B1 RNA 1
RNA 2: B1 RNA 2 with U40A, C45U, A49U
B28: target 1 insU 3' of 7,insA 3' of 4 (mixed)
RNA 1: B1 RNA 1
RNA 2: B26 RNA 2 with G42U, U43A, A44U, U45C, C46U, U49C, C50A
B29: target 1 A1C,U10A (mixed)
RNA 1: B1 RNA 1
RNA 2: B1 RNA 2 with U40G, U42A, A49U, A51C
B30: target 1 C2G,A20U (mixed)
RNA 1: B1 RNA 1
RNA 2: B1 RNA 2 with A32U, U40G, A49U, C50G
B31: target 1 insC 3' of 14,insG 3' of 8 (mixed)
RNA 1: B1 RNA 1
RNA 2: B26 RNA 2 with G39C, U41G, G42U, C46G, G48C, U49G

Changes are numbered by the printed parent chain. In names and notes the source's numbering stands.

The data set deals with T1, EsCas13d, nuclease-dead. Briefly: crRNA (strand 1, pre-loaded); Mg2+; 40 mM Tris-HCl pH 7.5, 150 mM NaCl, 6 mM MgCl2, 1 mM DTT, 0.1% Tween-20, 0.2 mg/ml BSA; 25 C; 10 min per concentration, then washed. Conditions: tags: His6-TwinStrep-SUMO cleaved; N-terminal SNAP kept (SNAP-Surface 488); label: 3' end held by stalled T7 RNA polymerase.
By Kd is commonly meant the concentration at which binding is half-saturated. Read a high Kd as weaker binding. B1 showed a dissociation constant Kd of 7.58 ± 0.34 nM.
The result for B2 reads 15.5 ± 0.8 nM.
The same measure for B3: 19.7 ± 1 nM; for B4: 13.4 ± 0.4 nM.
The same measure for B5: 7.46 ± 0.33 nM; for B6: 12.3 ± 0.5 nM; for B7: 8.24 ± 0.34 nM.
On to B8, for which the affinity, expressed as Kd, was 9.3 ± 0.6 nM.
The result for B9 reads about 70 nM; that for B10, 27.6 ± 2.8 nM.
The same measure for B11: 8.8 ± 0.4 nM; for B12: 29.2 ± 2.6 nM; for B13: 13.3 ± 0.6 nM.
The result for B14 reads 23.1 ± 1.9 nM.
The molecule B15 gave an equilibrium dissociation constant (Kd) of 7.2 ± 0.5 nM.
The result for B16 reads 15.8 ± 0.9 nM; that for B17, 8.8 ± 0.4 nM.
The same measure for B18: 48 ± 7 nM.
B19 gave an equilibrium dissociation constant (Kd) of 28 ± 7 nM.
Molecule B20 gave a Kd of 8.5 ± 0.6 nM.
In the case of B21, the dissociation constant (Kd) worked out at 12.7 ± 0.5 nM.
B22 registered a Kd of 32.2 ± 2.7 nM.
The same measure for B23: 22.3 ± 1.8 nM.
For B24, the Kd was 30 ± 4 nM.
Molecule B25 had a Kd of 11 ± 0.6 nM.
The same measure for B26: 39 ± 5 nM; for B27: 6.9 ± 0.4 nM; for B28: 9.7 ± 0.7 nM.
The same measure for B29: 26.2 ± 2.2 nM; for B30: 39 ± 7 nM; for B31: 65 ± 11 nM.

These data come from article PMC10786891, “Massively parallel profiling of RNA-targeting CRISPR-Cas13d”.
